IntAct's records for PubMed 28620713

B1: Cytochrome P450 1B1 (Homo sapiens), Q16678 (parent)
chain: MGTSLSPNDPWPLNPLSIQQTTLLLLLSVLATVHVGQRLLRQRRRQLRSAPPGPFAWPLIGNAAAVGQAAHLSFARLARRYGDVFQIRLGSCPIVVLNGERAIHQALVQQGSAFADRPAFASFRVVSGGRSMAFGHYSEHWKVQRRAAHSMMRNFFTRQPRSRQVLEGHVLSEARELVALLVRGSADGAFLDPRPLTVVAVANVMSAVCFGCRYSHDDPEFRELLSHNEEFGRTVGAGSLVDVMPWLQYFPNPVRTVFREFEQLNRNFSNFILDKFLRHCESLRPGAAPRDMMDAFILSAEKKAAGDSHGGGARLDLENVPATITDIFGASQDTLSTALQWLLLLFTRYPDVQTRVQAELDQVVGRDRLPCMGDQPNLPYVLAFLYEAMRFSSFVPVTIPHATTANTSVLGYHIPKDTVVFVNQWSVNHDPLKWPNPENFDPARFLDKDGLINKDLTSRVMIFSVGKRRCIGEELSKMQLFLFISILAHQCDFRANPNEPAKMNFSYGLTIKPKSFKVNVTLRESMELLDSAVQNLQAKETCQ

Variants of: B1
Conditions: with tie2_human TEK

| Variant | effect of a mutation on the interaction |
| --- | --- |
| E229K | disrupting interaction strength |

Variants of: B1
Conditions: with tie2_human TEK
Remark: another data set of the same source

| Variant | effect of a mutation on the interaction |
| --- | --- |
| E229K | with no effect |

Variants of: B1
Conditions: with tie2_human TEK
Remark: another data set of the same source

| Variant | effect of a mutation on the interaction |
| --- | --- |
| A115P | disrupting interaction strength |
| R368H | decreasing interaction strength |
